Measured values: PMC1934993 (Nucleic Acids Research, 2007)

Molecular target: the molecule itself
Test: crystal structure

B1: C-terminally truncated Saccharomyces cerevisiae tyrosyl-tRNA synthetase (SceTyrRS, residues 1-364) (enzyme, UniProt P36421 1-364, looked up)
chain: MSSAATVDPNEAFGLITKNLQEVLNPQIIKDVLEVQKRHLKLYWGTAPTGRPHCGYFVPMTKLADFLKAGCEVTVLLADLHAFLDNMKAPLEVVNYRAKYYELTIKAILRSINVPIEKLKFVVGSSYQLTPDYTMDIFRLSNIVSQNDAKRAGADVVKQVANPLLSGLIYPLMQALDEQFLDVDCQFGGVDQRKIFVLAEENLPSLGYKKRAHLMNPMVPGLAQGGKMSASDPNSKIDLLEEPKQVKKKINSAFCSPGNVEENGLLSFVQYVIAPIQELKFGTNHFEFFIDRPEKFGGPITYKSFEEMKLAFKEEKLSPPDLKIGVADAINELLEPIRQEFANNKEFQEASEKGYPVATPQKSK
**Q.** B1 was tested. Which “stoichiometry N” value did it give?
**A.** 2
